Data: patent US20170101466A1

What was measured:
[1] = biological target: soluble human BLyS (human) (UniProt Q9Y275); experiment: cell-based or functional assay
[2] = biological target: soluble mouse BLyS (mouse) (UniProt Q9WU72); experiment: cell-based or functional assay

hBLyS B-cell proliferation (IC50) [1]	IC50 hBLyS stimulated, mouse splenic B-cell proliferation [1] [ng/mL]	IC50 mBLyS stimulated, mouse splenic B-cell proliferation [2] [ng/mL]	Binder
12			14F11 IgG expressed in HEK293 cells (antibody, V domains shown) VH: QVQLVQSGAEVKKPGSSVKVSCKASGGTFSSYAISWVRQAPGQGLEWMGRINPNSGGTNYAQKFQGRVTMTRDTSISTAYMELSRLRSDDTFVYYCAREGYDFLTGYTLGGMDVWGQGTTVTVSS VL: QSVLTQPPSVSAAPGQKVTISCSGSSSNIGNNYVSWYQQLPGTAPKLLIYDNNKRPSGIPDRFSASKSGTSASLAISGLQAEDEADYYCQSYDSSLSGVVFGGGTKLTVLG
	7	7	human TACI (immunoglobulin fusion) (Fc fusion, part only; not given: immunoglobulin part, UniProt O14836 30-110, looked up, part only) chain, part: AMRSCPEEQYWDPLLGTCMSCKTICNHQSQRTCAAFCRSLSCRKEQGKFYDHLLRDCISCASICGQHPKQCAYFCENKLRS
